Data taken from patent publication US20190276511A1 (BIONTECH RNA PHARMACEUTICALS, published 2019).
Where two headings read alike, the source gives them in different places.

T1: CD27-Fc (human, UniProt P26842 20-191)
T1 construct: extracellular domain; hinge included for covalent assembly; also called CD27 receptor-Fc fusion protein; not shown: human Fc gamma 1 region including the hinge region
T1 sequence (looked up): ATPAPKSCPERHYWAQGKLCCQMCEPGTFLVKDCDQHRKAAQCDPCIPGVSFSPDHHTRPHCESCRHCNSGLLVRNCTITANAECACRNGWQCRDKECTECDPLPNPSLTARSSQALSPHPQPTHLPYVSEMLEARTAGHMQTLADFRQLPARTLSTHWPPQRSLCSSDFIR

T2: OX40 receptor on cells (human, UniProt P43489 29-277)
T2 sequence (looked up): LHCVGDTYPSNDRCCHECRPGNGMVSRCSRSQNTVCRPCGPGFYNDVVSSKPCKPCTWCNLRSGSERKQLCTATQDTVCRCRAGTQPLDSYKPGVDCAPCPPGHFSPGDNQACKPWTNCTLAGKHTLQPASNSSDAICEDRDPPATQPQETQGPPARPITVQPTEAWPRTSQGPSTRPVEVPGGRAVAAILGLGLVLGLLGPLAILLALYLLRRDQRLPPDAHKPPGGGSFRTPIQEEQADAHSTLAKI

T3: OX40-Fc (human, UniProt P43489 29-214)
T3 construct: extracellular domain; hinge included for covalent assembly; also called OX40 receptor-Fc fusion protein; not shown: human Fc gamma 1 region including the hinge region
T3 sequence (looked up): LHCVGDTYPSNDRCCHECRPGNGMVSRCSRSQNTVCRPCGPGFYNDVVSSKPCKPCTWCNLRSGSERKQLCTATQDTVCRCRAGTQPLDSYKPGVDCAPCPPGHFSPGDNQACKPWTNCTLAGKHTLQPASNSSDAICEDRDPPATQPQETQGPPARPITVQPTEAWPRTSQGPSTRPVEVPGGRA


Key:
[1] = biological target: T1, CD27-Fc; test: ELISA, coated receptor-Fc
[2] = biological target: T4, 4-1BB-Fc (human, UniProt Q07011 24-186); test: ELISA, coated receptor-Fc
T4 construct: extracellular domain; hinge included for covalent assembly; also called 4-1BB receptor-Fc fusion protein; not shown: human Fc gamma 1 region including the hinge region

[3] = biological target: T5, CD40 receptor on cells (human, UniProt P25942 21-277); test: cell-based or functional assay
T5 sequence (P25942 21-277): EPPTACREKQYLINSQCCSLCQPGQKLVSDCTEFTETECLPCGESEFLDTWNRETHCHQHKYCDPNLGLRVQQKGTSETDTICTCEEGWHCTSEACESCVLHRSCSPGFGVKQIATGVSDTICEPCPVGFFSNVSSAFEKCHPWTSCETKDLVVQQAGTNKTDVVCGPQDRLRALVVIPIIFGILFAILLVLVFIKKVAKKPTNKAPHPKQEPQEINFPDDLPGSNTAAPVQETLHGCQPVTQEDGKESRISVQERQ

[4] = biological target: T2, OX40 receptor on cells; test: cell-based or functional assay
[5] = biological target: T6, CD40-Fc (human, UniProt P25942 21-193); test: ELISA, coated receptor-Fc
T6 construct: extracellular domain; hinge included for covalent assembly; also called CD40 receptor-Fc fusion protein; not shown: human Fc gamma 1 region including the hinge region
T6 sequence (P25942 21-193 limits assumed): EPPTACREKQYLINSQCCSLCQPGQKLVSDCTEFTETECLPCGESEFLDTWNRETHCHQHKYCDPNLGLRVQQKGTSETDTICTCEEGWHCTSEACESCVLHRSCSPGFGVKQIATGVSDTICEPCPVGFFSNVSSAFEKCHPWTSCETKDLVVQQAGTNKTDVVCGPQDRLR
Description: (§1) Receptor binding of the Duokines was analyzed by ELISA using fusion proteins of the extracellular region of CD40, CD27, 4-1BB and OX40, respectively, with the human Fcγ1 region including the hinge region for covalent assembly (CD40-Fc, CD27-Fc, 4-1BB-Fc, OX40-Fc). Receptor-Fc fusion proteins (200 ng/well) were coated overnight at 4° C. and remaining binding sites were blocked with PBS, 2% skimmed milk powder (2% MPBS).

[6] = biological target: T3, OX40-Fc; test: ELISA, coated receptor-Fc
Description: as §1

[7] = biological target: T6, CD40-Fc; test: ELISA, coated receptor-Fc; remark: listed apart in the source
[8] = biological target: T2, OX40 receptor on cells; test: cell-based or functional assay; remark: listed apart in the source
[9] = biological target: T1, CD27-Fc; test: ELISA, coated receptor-Fc; remark: listed apart in the source
Description: as §1, with “of the single-chain Duokines was” for “of the Duokines was”, “(2% MPBS). […] The interactions between scDuokine and receptor were dose-dependent with EC₅₀ values in the low nanomolar ranges (FIG. 11 AB, Tab. 2).” for “(2% MPBS).”

[10] = biological target: T3, OX40-Fc; test: ELISA, coated receptor-Fc; remark: listed apart in the source
Description: as §1, with “of the single-chain Duokines was” for “of the Duokines was”, “(2% MPBS). […] The interactions between scDuokine and receptor were dose-dependent with EC₅₀ values in the low nanomolar ranges (FIG. 11 AB, Tab. 2).” for “(2% MPBS).”

[11] = biological target: T1, CD27-Fc; test: ELISA, coated receptor-Fc; remark: listed apart in the source
Description: as §1

[12] = biological target: T5, CD40 receptor on cells; test: cell-based or functional assay; remark: listed apart in the source
[13] = biological target: T6, CD40-Fc; test: ELISA, coated receptor-Fc; remark: listed apart in the source
Description: as §1, with “of the single-chain Duokines was” for “of the Duokines was”, “(2% MPBS). […] The interactions between scDuokine and receptor were dose-dependent with EC₅₀ values in the low nanomolar ranges (FIG. 11 AB, Tab. 2).” for “(2% MPBS).”

Binder | binding result [1] | binding result [2] | Receptor activation (EC50, nM) [3] | Receptor activation (EC50, nM) [4] | EC50 [5] | EC50 [6] | binding result [7] | Receptor activation (EC50, nM) [8] | EC50 [9] | EC50 [10] | EC50 [11] | Receptor activation (EC50, nM) [12] | EC50 [13]
CD40L-OX40L (ligand, Duokine from HEK293, FLAG-purified; VH leader left out; homotrimer by SEC; also called Duokine CD40L-OX40L; not shown: N-terminal FLAG tag) GDQNPQIAAHVISEASSKTTSVLQWAEKGYYTMSNNLVTLENGKQLTVKRQGLYYIYAQVTFCSNREASSQAPFIASLCLKSPGRFERILLRAANTHSSAKPCGQQSIHLGGVFELQPGASVFVNVTDPSQVSHGTGFTSFGLLKLGGGGSGGGGSGGGGSQVSHRYPRIQSIKVQFTEYKKEKGFILTSQKEDEIMKVQNNSVIINCDGFYLISLKGYFSQEVNISLHYQKDEEPLFQLKKVRSVNSLMVASLTYKDKVYLNVTTDNTSLDDFHVNGGELILIHQNPGEFCVL | no binding (tested: 100 nM (FIG. 4)) | no binding (tested: 100 nM (FIG. 4)) | 16.6 nM | 0.7 nM | 2.18 nM | 0.51 nM | – | – | – | – | – | – | –
scCD27L-scOX40L (ligand, scDuokine from HEK293, FLAG-purified; VH leader left out; also called single-chain Duokine scCD27L-scOX40L; not shown: N-terminal FLAG tag) SLGWDVAELQLNHTGPQQDPRLYWQGGPALGRSFLHGPELDKGQLRIHRDGIYMVHIQVTLAICSSTTASRHHPTTLAVGICSPASRSISLLRLSFHQGCTIASQRLTPLARGDTLCTNLTGTLLPSRNTDETFFGVQWVRPGGGSGGGSLGWDVAELQLNHTGPQQDPRLYWQGGPALGRSFLHGPELDKGQLRIHRDGIYMVHIQVTLAICSSTTASRHHPTTLAVGICSPASRSISLLRLSFHQGCTIASQRLTPLARGDTLCTNLTGTLLPSRNTDETFFGVQWVRPGGGSGGGSLGWDVAELQLNHTGPQQDPRLYWQGGPALGRSFLHGPELDKGQLRIHRDGIYMVHIQVTLAICSSTTASRHHPTTLAVGICSPASRSISLLRLSFHQGCTIASQRLTPLARGDTLCTNLTGTLLPSRNTDETFFGVQWVRPGGGGSGGGTGGGGSQVSHRYPRIQSIKVQFTEYKKEKGFILTSQKEDEIMKVQNNSVIINCDGFYLISLKGYFSQEVNISLHYQKDEEPLFQLKKVRSVNSLMVASLTYKDKVYLNVTTDNTSLDDFHVNGGELILIHQNPGEFCVLGGGSGGGQVSHRYPRIQSIKVQFTEYKKEKGFILTSQKEDEIMKVQNNSVIINCDGFYLISLKGYFSQEVNISLHYQKDEEPLFQLKKVRSVNSLMVASLTYKDKVYLNVTTDNTSLDDFHVNGGELILIHQNPGEFCVLGGGSGGGQVSHRYPRIQSIKVQFTEYKKEKGFILTSQKEDEIMKVQNNSVIINCDGFYLISLKGYFSQEVNISLHYQKDEEPLFQLKKVRSVNSLMVASLTYKDKVYLNVTTDNTSLDDFHVNGGELILIHQNPGEFCVL | – | no binding (tested: 100 nM (FIG. 10)) | – | – | – | – | no binding (tested: 100 nM (FIG. 10)) | 1.49 nM | 7.34 nM | 286 nM | – | – | –
CD27L-OX40L (ligand, Duokine from HEK293, FLAG-purified; VH leader left out; homotrimer by SEC; also called Duokine CD27L-OX40L; not shown: N-terminal FLAG tag) SLGWDVAELQLNHTGPQQDPRLYWQGGPALGRSFLHGPELDKGQLRIHRDGIYMVHIQVTLAICSSTTASRHHPTTLAVGICSPASRSISLLRLSFHQGCTIASQRLTPLARGDTLCTNLTGTLLPSRNTDETFFGVQWVRPGGGGSGGGGSGGGGSQVSHRYPRIQSIKVQFTEYKKEKGFILTSQKEDEIMKVQNNSVIINCDGFYLISLKGYFSQEVNISLHYQKDEEPLFQLKKVRSVNSLMVASLTYKDKVYLNVTTDNTSLDDFHVNGGELILIHQNPGEFCVL | – | no binding (tested: 100 nM (FIG. 4)) | – | 10.2 nM | – | 3.16 nM | no binding (tested: 100 nM (FIG. 4)) | – | – | – | 6.74 nM | – | –
OX40L-CD40L (ligand, Duokine from HEK293, FLAG-purified; VH leader left out; homotrimer by SEC; also called Duokine OX40L-CD40L; not shown: N-terminal FLAG tag) QVSHRYPRIQSIKVQFTEYKKEKGFILTSQKEDEIMKVQNNSVIINCDGFYLISLKGYFSQEVNISLHYQKDEEPLFQLKKVRSVNSLMVASLTYKDKVYLNVTTDNTSLDDFHVNGGELILIHQNPGEFCVLGGGGSGGGGSGGGGSGDQNPQIAAHVISEASSKTTSVLQWAEKGYYTMSNNLVTLENGKQLTVKRQGLYYIYAQVTFCSNREASSQAPFIASLCLKSPGRFERILLRAANTHSSAKPCGQQSIHLGGVFELQPGASVFVNVTDPSQVSHGTGFTSFGLLKL | no binding (tested: 100 nM (FIG. 4)) | no binding (tested: 100 nM (FIG. 4)) | 3.86 nM | 0.73 nM | 1.45 nM | 1.01 nM | – | – | – | – | – | – | –
scCD40L-scOX40L (ligand, scDuokine from HEK293, FLAG-purified; VH leader left out; also called single-chain Duokine scCD40L-scOX40L; not shown: N-terminal FLAG tag) GDQNPQIAAHVISEASSKTTSVLQWAEKGYYTMSNNLVTLENGKQLTVKRQGLYYIYAQVTFCSNREASSQAPFIASLCLKSPGRFERILLRAANTHSSAKPCGQQSIHLGGVFELQPGASVFVNVTDPSQVSHGTGFTSFGLLKLGGGSGGGGDQNPQIAAHVISEASSKTTSVLQWAEKGYYTMSNNLVTLENGKQLTVKRQGLYYIYAQVTFCSNREASSQAPFIASLCLKSPGRFERILLRAANTHSSAKPCGQQSIHLGGVFELQPGASVFVNVTDPSQVSHGTGFTSFGLLKLGGGSGGGGDQNPQIAAHVISEASSKTTSVLQWAEKGYYTMSNNLVTLENGKQLTVKRQGLYYIYAQVTFCSNREASSQAPFIASLCLKSPGRFERILLRAANTHSSAKPCGQQSIHLGGVFELQPGASVFVNVTDPSQVSHGTGFTSFGLLKLGGGGSGGGTGGGGSQVSHRYPRIQSIKVQFTEYKKEKGFILTSQKEDEIMKVQNNSVIINCDGFYLISLKGYFSQEVNISLHYQKDEEPLFQLKKVRSVNSLMVASLTYKDKVYLNVTTDNTSLDDFHVNGGELILIHQNPGEFCVLGGGSGGGQVSHRYPRIQSIKVQFTEYKKEKGFILTSQKEDEIMKVQNNSVIINCDGFYLISLKGYFSQEVNISLHYQKDEEPLFQLKKVRSVNSLMVASLTYKDKVYLNVTTDNTSLDDFHVNGGELILIHQNPGEFCVLGGGSGGGQVSHRYPRIQSIKVQFTEYKKEKGFILTSQKEDEIMKVQNNSVIINCDGFYLISLKGYFSQEVNISLHYQKDEEPLFQLKKVRSVNSLMVASLTYKDKVYLNVTTDNTSLDDFHVNGGELILIHQNPGEFCVL | no binding (tested: 100 nM (FIG. 10)) | no binding (tested: 100 nM (FIG. 10)) | – | – | – | – | – | 0.57 nM | – | 1.33 nM | – | 9.54 nM | 40.2 nM
scOX40L-scCD40L (ligand, scDuokine from HEK293, FLAG-purified; VH leader left out; also called single-chain Duokine scOX40L-scCD40L; not shown: N-terminal FLAG tag) QVSHRYPRIQSIKVQFTEYKKEKGFILTSQKEDEIMKVQNNSVIINCDGFYLISLKGYFSQEVNISLHYQKDEEPLFQLKKVRSVNSLMVASLTYKDKVYLNVTTDNTSLDDFHVNGGELILIHQNPGEFCVLGGGSGGGQVSHRYPRIQSIKVQFTEYKKEKGFILTSQKEDEIMKVQNNSVIINCDGFYLISLKGYFSQEVNISLHYQKDEEPLFQLKKVRSVNSLMVASLTYKDKVYLNVTTDNTSLDDFHVNGGELILIHQNPGEFCVLGGGSGGGQVSHRYPRIQSIKVQFTEYKKEKGFILTSQKEDEIMKVQNNSVIINCDGFYLISLKGYFSQEVNISLHYQKDEEPLFQLKKVRSVNSLMVASLTYKDKVYLNVTTDNTSLDDFHVNGGELILIHQNPGEFCVLGGGGSGGGTGGGGSGDQNPQIAAHVISEASSKTTSVLQWAEKGYYTMSNNLVTLENGKQLTVKRQGLYYIYAQVTFCSNREASSQAPFIASLCLKSPGRFERILLRAANTHSSAKPCGQQSIHLGGVFELQPGASVFVNVTDPSQVSHGTGFTSFGLLKLGGGSGGGGDQNPQIAAHVISEASSKTTSVLQWAEKGYYTMSNNLVTLENGKQLTVKRQGLYYIYAQVTFCSNREASSQAPFIASLCLKSPGRFERILLRAANTHSSAKPCGQQSIHLGGVFELQPGASVFVNVTDPSQVSHGTGFTSFGLLKLGGGSGGGGDQNPQIAAHVISEASSKTTSVLQWAEKGYYTMSNNLVTLENGKQLTVKRQGLYYIYAQVTFCSNREASSQAPFIASLCLKSPGRFERILLRAANTHSSAKPCGQQSIHLGGVFELQPGASVFVNVTDPSQVSHGTGFTSFGLLKL | no binding (tested: 100 nM (FIG. 10)) | no binding (tested: 100 nM (FIG. 10)) | – | – | – | – | – | 0.51 nM | – | 2.13 nM | – | 3.22 nM | 6.74 nM
